This assay concerns the target Kit, the receptor for SCF (UniProt P10721). In words: cell-based or functional assay.

In patent US6904369 one finds Biological Activity (Approximate, compared to wild type SCF) (fold lower than wild type SCF) data, which are given here for four substances.

Kit, the receptor for SCF, sequence (P10721 26-976 limits assumed): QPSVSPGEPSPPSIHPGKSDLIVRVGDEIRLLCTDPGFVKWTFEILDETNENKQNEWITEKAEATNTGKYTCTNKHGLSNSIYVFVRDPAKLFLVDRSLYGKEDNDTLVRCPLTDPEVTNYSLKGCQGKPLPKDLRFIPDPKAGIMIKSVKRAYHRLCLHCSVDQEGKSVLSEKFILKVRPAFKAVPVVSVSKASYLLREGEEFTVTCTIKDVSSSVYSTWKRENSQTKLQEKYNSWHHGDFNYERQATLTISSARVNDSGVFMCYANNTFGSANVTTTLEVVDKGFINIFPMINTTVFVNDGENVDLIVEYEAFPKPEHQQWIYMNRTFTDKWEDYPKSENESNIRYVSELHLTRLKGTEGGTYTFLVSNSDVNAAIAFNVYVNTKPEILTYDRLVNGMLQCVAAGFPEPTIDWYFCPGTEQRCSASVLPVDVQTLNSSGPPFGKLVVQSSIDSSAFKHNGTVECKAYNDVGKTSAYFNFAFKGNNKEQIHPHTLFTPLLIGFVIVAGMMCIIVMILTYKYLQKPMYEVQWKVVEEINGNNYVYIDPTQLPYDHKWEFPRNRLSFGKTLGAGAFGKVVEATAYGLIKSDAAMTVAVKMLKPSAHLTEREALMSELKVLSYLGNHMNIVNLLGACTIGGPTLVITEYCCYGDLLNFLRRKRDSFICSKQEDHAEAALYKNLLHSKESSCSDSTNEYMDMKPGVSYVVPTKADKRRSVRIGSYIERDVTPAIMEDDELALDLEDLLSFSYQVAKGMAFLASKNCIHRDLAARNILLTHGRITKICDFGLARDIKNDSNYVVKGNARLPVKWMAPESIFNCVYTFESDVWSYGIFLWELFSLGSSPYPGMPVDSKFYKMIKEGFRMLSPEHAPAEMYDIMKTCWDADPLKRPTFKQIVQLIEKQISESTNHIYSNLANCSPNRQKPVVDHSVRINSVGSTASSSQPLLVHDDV

“SCF(R117A, I118A) (from UniProt P21583 26-166) (ligand)”: the Biological Activity (Approximate, compared to wild type SCF) (fold lower than wild type SCF) is 10.

The substance “SCF(K78N, N81K) (from UniProt P21583 26-166) (ligand)” yielded a Biological Activity (Approximate, compared to wild type SCF) (fold lower than wild type SCF) of 3.

For “SCF(K62C) (from UniProt P21583 26-166) (ligand)”, the Biological Activity (Approximate, compared to wild type SCF) (fold lower than wild type SCF) worked out at 7.

Regarding “SCF(D25C) (from UniProt P21583 26-166) (ligand)”, the Biological Activity (Approximate, compared to wild type SCF) (fold lower than wild type SCF) was 100.
